US20260325600A1, “FORMULATIONS FOR INTRAOCULAR DELIVERY OF PEPTIDES DERIVED FROM TYPE IV COLLAGEN” (ASCLEPIX THERAPEUTICS, INC., priority 2022, published 2026)

Key:
[1] = aqueous solution administered into vitreous from animals and people; cited from earlier work
[2] = In vitro gel formation in mock vitreous and homogenization; format: physicochemical
Description: In alternative embodiments, microparticles can be prepared and fragmented. For example, a vitreous-like solution (“mock vitreous”) was prepared with sodium hyaluronate and used for in vitro pre-fragmented gel formation experiments. The AXT107 peptide solution is added to the mock vitreous, upon which the peptide forms a gel.

LRRFSTAPFAFIDINDVINF [AXT107]
gel formation in vitreous [1]: precipitate to form a gel-like substance | product of homogenization of gel ([2]; gels homogenized after formation in mock vitreous): suspended microparticles comparable to those formed in excipient formulation with mixing | gel formation in mock vitreous ([2]; mock vitreous with sodium hyaluronate): forms a gel
